In paper PMC7189753:

Target: ChuX
Assay: AUC

ChuX (natural protein) gave a percent of the sample as dimer (2.9 S species) of 81.3% and a percent of the sample as tetramer (4.5 S species) of 10.8%.
